Test results taken from FireProtDB (doi:10.1016/j.bpc.2008.09.020).

B1: Cytochrome c-551, P00099 (parent)
chain: MKPYALLSLLATGTLLAQGAWAEDPEVLFKNKGCVACHAIDTKMVGPAYKDVAAKFAGQAGAEAELAQRIKNGSQGVWGPIPMPPNAVSDDEAQTLAKWVLSQK

Variants of: B1
Conditions: Pseudomonas aeruginosa (strain ATCC 15692 / DSM 22644 / CIP 104116 / JCM 14847 / LMG 12228 / 1C / PRS 101 / PAO1), 25 °C, GdnHCl, CD, Sodium acetate 20 mM, structure 451C, whole UniProt chain shown

**Q.** With MKPYALLSLLATGTLLAQGAWAEDPEVLFKNKGCVACHAIDTKMVGPAYKDVAAKFAGQAGAEAELAQRIKNGSQGVWGPIPMPPNAVSDDEAQTLAKWILSQK [V100I] as the variant, how does the “ddG of mutation (higher = less stable)” value (pH 3.6) read?
**A.** The value was -4.39 kJ/mol.

**Q.** What about the denaturant m value (pH 3.6) of the same variant?
**A.** The denaturant m value was 2.74 kcal/mol/M.

**Q.** What about the “denaturant midpoint (higher = more stable)” value (“denaturant midpoint” below) (pH 3.6) of the same variant?
**A.** The value was 1.89 M.

**Q.** And the unfolding free energy (pH 3.6)?
**A.** The unfolding free energy was 21.7 kJ/mol.

**Q.** And the “ddG of mutation (higher = less stable)” value (pH 5)?
**A.** The value was -6.23 kJ/mol.

**Q.** What about the denaturant m value (pH 5) of the same variant?
**A.** The denaturant m value was 2.74 kcal/mol/M.

**Q.** And the “denaturant midpoint” value (pH 5)?
**A.** Its value is 2.53 M.

**Q.** And the unfolding free energy (pH 5)?
**A.** Its unfolding free energy is 29 kJ/mol.

**Q.** Which “ddG of mutation (higher = less stable)” value (pH 3.6) does the source give for MKPYALLSLLATGTLLAQGAWAEDPEVLAKNKGCMACHAIDTKMVGPAYKDVAAKYAGQAGAEAYLAQRIKNGSQGVWGPIPMPPNAVSDDEAQTLAKWILSQK [F29A V35M F56Y E65Y V100I] here?
**A.** Its value is -14 kJ/mol.

**Q.** What about the denaturant m value (pH 3.6) of the same variant?
**A.** The denaturant m value was 2.54 kcal/mol/M.

**Q.** What about the “denaturant midpoint” value (pH 3.6) of the same variant?
**A.** The value was 2.95 M.

**Q.** What about the unfolding free energy (pH 3.6) of the same variant?
**A.** Its unfolding free energy is 31.3 kJ/mol.

**Q.** What about the “ddG of mutation (higher = less stable)” value (pH 5) of the same variant?
**A.** The value was -20 kJ/mol.

**Q.** And the denaturant m value (pH 5)?
**A.** The denaturant m value was 2.44 kcal/mol/M.

**Q.** What about the “denaturant midpoint” value (pH 5) of the same variant?
**A.** The value was 4.2 M.

**Q.** What about the unfolding free energy (pH 5) of the same variant?
**A.** The unfolding free energy was 42.8 kJ/mol.

**Q.** For MKPYALLSLLATGTLLAQGAWAEDPEVLFKNKGCVACHAIDTKMVGPAYKDVAAKFAGQAGAEAYLAQRIKNGSQGVWGPIPMPPNAVSDDEAQTLAKWVLSQK [E65Y], which “ddG of mutation (higher = less stable)” value (pH 3.6) is on record?
**A.** Its value is -0.377 kJ/mol.

**Q.** What about the denaturant m value (pH 3.6) of the same variant?
**A.** The denaturant m value was 2.88 kcal/mol/M.

**Q.** What about the “denaturant midpoint” value (pH 3.6) of the same variant?
**A.** Its value is 1.46 M.

**Q.** And the unfolding free energy (pH 3.6)?
**A.** Its unfolding free energy is 17.7 kJ/mol.

**Q.** What about the “ddG of mutation (higher = less stable)” value (pH 5) of the same variant?
**A.** Its value is -4.73 kJ/mol.

**Q.** And the denaturant m value (pH 5)?
**A.** Its denaturant m value is 3.1 kcal/mol/M.

**Q.** What about the “denaturant midpoint” value (pH 5) of the same variant?
**A.** Its value is 2.12 M.

**Q.** What about the unfolding free energy (pH 5) of the same variant?
**A.** The unfolding free energy was 27.5 kJ/mol.

**Q.** For MKPYALLSLLATGTLLAQGAWAEDPEVLFKNKGCVACHAIDTKMVGPAYKDVAAKYAGQAGAEAELAQRIKNGSQGVWGPIPMPPNAVSDDEAQTLAKWVLSQK [F56Y], which “ddG of mutation (higher = less stable)” value (pH 3.6) is on record?
**A.** Its value is -1.17 kJ/mol.

**Q.** What about the denaturant m value (pH 3.6) of the same variant?
**A.** The denaturant m value was 2.76 kcal/mol/M.

**Q.** What about the “denaturant midpoint” value (pH 3.6) of the same variant?
**A.** The value was 1.6 M.

**Q.** What about the unfolding free energy (pH 3.6) of the same variant?
**A.** The unfolding free energy was 18.5 kJ/mol.

**Q.** What about the “ddG of mutation (higher = less stable)” value (pH 5) of the same variant?
**A.** The value was -5.56 kJ/mol.

**Q.** And the denaturant m value (pH 5)?
**A.** Its denaturant m value is 2.67 kcal/mol/M.

**Q.** What about the “denaturant midpoint” value (pH 5) of the same variant?
**A.** Its value is 2.54 M.

**Q.** And the unfolding free energy (pH 5)?
**A.** The unfolding free energy was 28.4 kJ/mol.

**Q.** Which “ddG of mutation (higher = less stable)” value (pH 3.6) does the source give for MKPYALLSLLATGTLLAQGAWAEDPEVLFKNKGCVACHAIDTKMVGPAYKDVAAKYAGQAGAEAYLAQRIKNGSQGVWGPIPMPPNAVSDDEAQTLAKWILSQK [F56Y E65Y V100I] here?
**A.** The value was -6.82 kJ/mol.

**Q.** And the denaturant m value (pH 3.6)?
**A.** Its denaturant m value is 2.57 kcal/mol/M.

**Q.** What about the “denaturant midpoint” value (pH 3.6) of the same variant?
**A.** Its value is 2.25 M.

**Q.** What about the unfolding free energy (pH 3.6) of the same variant?
**A.** Its unfolding free energy is 24.1 kJ/mol.

**Q.** And the “ddG of mutation (higher = less stable)” value (pH 5)?
**A.** The value was -12.3 kJ/mol.

**Q.** What about the denaturant m value (pH 5) of the same variant?
**A.** The denaturant m value was 2.44 kcal/mol/M.

**Q.** And the “denaturant midpoint” value (pH 5)?
**A.** Its value is 3.44 M.

**Q.** And the unfolding free energy (pH 5)?
**A.** The unfolding free energy was 35.1 kJ/mol.

**Q.** Which “ddG of mutation (higher = less stable)” value (pH 3.6) does the source give for MKPYALLSLLATGTLLAQGAWAEDPEVLFKNKGCVACHAIDTKMVGPAYKDVAAKYAGQAGAEAYLAQRIKNGSQGVWGPIPMPPNAVSDDEAQTLAKWVLSQK [F56Y E65Y] here?
**A.** Its value is -3.01 kJ/mol.

**Q.** What about the denaturant m value (pH 3.6) of the same variant?
**A.** Its denaturant m value is 2.7 kcal/mol/M.

**Q.** What about the “denaturant midpoint” value (pH 3.6) of the same variant?
**A.** Its value is 1.8 M.

**Q.** What about the unfolding free energy (pH 3.6) of the same variant?
**A.** The unfolding free energy was 20.3 kJ/mol.

**Q.** And the “ddG of mutation (higher = less stable)” value (pH 5)?
**A.** Its value is -9.5 kJ/mol.

**Q.** And the denaturant m value (pH 5)?
**A.** The denaturant m value was 2.68 kcal/mol/M.

**Q.** And the “denaturant midpoint” value (pH 5)?
**A.** Its value is 2.88 M.

**Q.** What about the unfolding free energy (pH 5) of the same variant?
**A.** The unfolding free energy was 32.3 kJ/mol.

**Q.** Which “ddG of mutation (higher = less stable)” value (pH 3.6) does the source give for MKPYALLSLLATGTLLAQGAWAEDPEVLAKNKGCMACHAIDTKMVGPAYKDVAAKFAGQAGAEAELAQRIKNGSQGVWGPIPMPPNAVSDDEAQTLAKWILSQK [F29A V35M V100I] here?
**A.** The value was -7.95 kJ/mol.

**Q.** What about the denaturant m value (pH 3.6) of the same variant?
**A.** Its denaturant m value is 2.45 kcal/mol/M.

**Q.** What about the “denaturant midpoint” value (pH 3.6) of the same variant?
**A.** Its value is 2.46 M.

**Q.** What about the unfolding free energy (pH 3.6) of the same variant?
**A.** The unfolding free energy was 25.3 kJ/mol.

**Q.** What about the “ddG of mutation (higher = less stable)” value (pH 5) of the same variant?
**A.** Its value is -9.58 kJ/mol.

**Q.** What about the denaturant m value (pH 5) of the same variant?
**A.** Its denaturant m value is 2.47 kcal/mol/M.

**Q.** And the “denaturant midpoint” value (pH 5)?
**A.** Its value is 3.13 M.

**Q.** What about the unfolding free energy (pH 5) of the same variant?
**A.** Its unfolding free energy is 32.4 kJ/mol.

**Q.** Which “ddG of mutation (higher = less stable)” value (pH 3.6) does the source give for MKPYALLSLLATGTLLAQGAWAEDPEVLAKNKGCMACHAIDTKMVGPAYKDVAAKFAGQAGAEAELAQRIKNGSQGVWGPIPMPPNAVSDDEAQTLAKWVLSQK [F29A V35M] here?
**A.** Its value is -6.07 kJ/mol.

**Q.** What about the denaturant m value (pH 3.6) of the same variant?
**A.** The denaturant m value was 2.56 kcal/mol/M.

**Q.** What about the “denaturant midpoint” value (pH 3.6) of the same variant?
**A.** The value was 2.18 M.

**Q.** What about the unfolding free energy (pH 3.6) of the same variant?
**A.** The unfolding free energy was 23.3 kJ/mol.

**Q.** And the “ddG of mutation (higher = less stable)” value (pH 5)?
**A.** The value was -8.03 kJ/mol.

**Q.** And the denaturant m value (pH 5)?
**A.** The denaturant m value was 2.57 kcal/mol/M.

**Q.** And the “denaturant midpoint” value (pH 5)?
**A.** Its value is 2.87 M.

**Q.** What about the unfolding free energy (pH 5) of the same variant?
**A.** The unfolding free energy was 30.8 kJ/mol.

**Q.** Which “ddG of mutation (higher = less stable)” value (pH 3.6) does the source give for MKPYALLSLLATGTLLAQGAWAEDPEVLAKNKGCMACHAIDTKMVGPAYKDVAAKYAGQAGAEAYLAQRIKNGSQGVWGPIPMPPNAVSDDEAQTLAKWVLSQK [F29A V35M F56Y E65Y] here?
**A.** The value was -10 kJ/mol.

**Q.** And the denaturant m value (pH 3.6)?
**A.** Its denaturant m value is 2.52 kcal/mol/M.

**Q.** What about the “denaturant midpoint” value (pH 3.6) of the same variant?
**A.** The value was 2.59 M.

**Q.** What about the unfolding free energy (pH 3.6) of the same variant?
**A.** Its unfolding free energy is 27.3 kJ/mol.

**Q.** What about the “ddG of mutation (higher = less stable)” value (pH 5) of the same variant?
**A.** The value was -15.7 kJ/mol.

**Q.** And the denaturant m value (pH 5)?
**A.** The denaturant m value was 2.43 kcal/mol/M.

**Q.** What about the “denaturant midpoint” value (pH 5) of the same variant?
**A.** Its value is 3.78 M.

**Q.** What about the unfolding free energy (pH 5) of the same variant?
**A.** Its unfolding free energy is 38.5 kJ/mol.
